Source: patent US8846861B2, “Peptide clearing agents” (Mologic Ltd, priority 2009, dated 2014)

Tested on: CCL 229 (LoVo) CEA expressing cell line
Assay: Flow cytometry cell binding, CEA expressing cell line
Assay type: cell-based
Settings: CCL 229, PE label, 1 hour at 4° C.
Method: Measurement by Flow Cytometry of Binding Capability of scFv Anti-CEA-CPG2 Using CEA Expressing Cells.
CRL 1573—control cell line, CCL 229 (LoVo)—CEA expressing cell line
Cultured cells were both used at 2×10^5 cells per tube, cells in tubes were prepared to contain the following
Cells were spun down and 100 μl of antibody solution was added to respective tube. 100 μl buffer was added to tubes 1 and 2 and left in fridge until later.
Tubes were incubated in the dark at 4° C. for 1 hour, add 1 ml PBSAB and spun as above. Include tube 1 in this wash. The supernatant was removed and 100 μl conjugate was added to tube 6 for a further incubation of 1 hr in the dark at 4° C.
Added 150 μl 0.5% formaldehyde to tubes 1, 3, 4 and 5, stored in the fridge until measured (˜2 hours). Washed tube 6 as before and add formaldehyde to this tube. 30 minutes before measuring add 100 μl Propidium Iodine to tube 2, before measuring, added 1 ml of PBS to all samples.

B1: CPG2 control: carboxypeptidase G2 conjugated to phycoerythrin, control without anti-CEA part (protein)
chain: ALAQKRDNVLFQAATDEQPAVIKTLEKLVNIETGTGDAEGIAAAGNFLEAELKNLGFTVTRSKSAGLVVGDNIVGKIKGRGGKNLLLMSHMDTVYLKGILAKAPFRVEGDKAYGPGIADDKGGNAVILHTLKLLKEYGVRDYGTITVLFNTDEEKGSFGSRDLIQEEAKLADYVLSFEPTSAGDEKLSLGTSGIAYVQVNITGKASHAGAAPELGVNALVEASDLVLRTMNIDDKAKNLRFNWTIAKAGNVSNIIPASATLNADVRYARNEDFDAAMKTLEERAQQKKLPEADVKVIVTRGRPAFNAGEGGKKLVDKAVAYYKEAGGTLGVEERTGGGTDAAYAALSGKPVIESLGLPGFGYHSDKAEYVDISAIPRRLYMAARLIMDLGAGK
With B1 the “binding to cells by flow cytometry (in words)” value was “does not bind”.
